Paper PMC3711453
Read-outs that look alike come from different tables or passages of the source.

T1: His6-MTSF1 (lacking first 146 aa) (Arabidopsis thaliana? (Arabidopsis, …, UniProt Q9M9X9 147-987))
T1 sequence: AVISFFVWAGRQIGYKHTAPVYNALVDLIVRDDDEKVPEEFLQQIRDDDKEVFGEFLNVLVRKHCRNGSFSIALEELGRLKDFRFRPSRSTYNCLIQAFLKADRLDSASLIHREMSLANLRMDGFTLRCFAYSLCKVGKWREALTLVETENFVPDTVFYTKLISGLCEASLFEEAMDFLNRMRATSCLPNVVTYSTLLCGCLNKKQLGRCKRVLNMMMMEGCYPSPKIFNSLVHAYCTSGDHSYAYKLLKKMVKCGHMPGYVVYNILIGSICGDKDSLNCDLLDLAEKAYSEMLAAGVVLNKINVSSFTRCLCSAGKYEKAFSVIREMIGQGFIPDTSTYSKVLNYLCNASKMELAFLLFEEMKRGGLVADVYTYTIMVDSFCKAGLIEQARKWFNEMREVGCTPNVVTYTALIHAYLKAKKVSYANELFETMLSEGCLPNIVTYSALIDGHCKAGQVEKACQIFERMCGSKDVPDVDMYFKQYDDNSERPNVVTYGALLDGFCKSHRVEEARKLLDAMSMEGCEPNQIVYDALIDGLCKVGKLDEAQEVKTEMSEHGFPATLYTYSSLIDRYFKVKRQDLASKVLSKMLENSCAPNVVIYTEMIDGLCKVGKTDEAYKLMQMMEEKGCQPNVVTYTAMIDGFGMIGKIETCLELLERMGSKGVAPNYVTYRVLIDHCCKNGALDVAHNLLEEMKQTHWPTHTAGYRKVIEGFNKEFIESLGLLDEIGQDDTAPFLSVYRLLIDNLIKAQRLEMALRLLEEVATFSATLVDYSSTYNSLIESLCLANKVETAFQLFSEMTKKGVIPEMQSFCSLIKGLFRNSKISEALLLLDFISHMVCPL


Tests used:
[1] = target: T1, His6-MTSF1 (lacking first 146 aa); test: EMSA
[2] = target: T1, His6-MTSF1 (lacking first 146 aa); test: EMSA; remark: listed apart in the source

| Binder | binding result [1] | binding result [2] |
| --- | --- | --- |
| GAGGAAUCAGCAAAGAAAAGAAAAACGGGU (ssRNA) [3'ND4-1 (entire nad4 3' UTR, 30 nt)] | binds |  |
| CAACAUCUUAAUGUGUAUUUGAGGAUAUUU (ssRNA) [3'ND4-4 (30 nt downstream of nad4 mRNA 3' end)] | no binding |  |
| CAAAGAAAAGAAAAACGGGU (ssRNA) [3'ND4-3 (last 20 nt of nad4 3' UTR)] |  | binds |
| AACAUGGCAAAUUUCAUUGA (ssRNA) [3'ND4-2 (last 20 nt of nad4 coding sequence)] | no binding |  |
